# B1: phosphoglucomutase GlmM of Lactococcus lactis (enzyme, UniProt A2RIG0 1-452, looked up)
# chain: MGKYFGTDGVRGEANVELTPEMAFKLGRFGGYVLSQHELETPKVYVGRDTRISGQMLASSLISGLLSVGIEVYDLGVIATPGVAYLVKKDGASAGVMISASHNPALDNGIKFFGGDGYKLEDEKELEIEALIDAKEDTLPRPSAQGLGMLHDYIEGVRKYQAFLKTTAEGDFEGYNVVLDTANGASYTSARAVFADLKANLTVIGENPDGLNINVKVGSTHPEAMAKKVVETGSDLGLAFDGDADRLIAVDENGEIVDGDKIMFIVGKYLLEQGKLAQDTLVTTVMSNLGFHLALEEAGINSVITAVGDRYVVEEMKKNNYNFGGEQSGHMIFLDYNTTGDGQLSAIQLLKVMRETGKTLSELASEVTIYPQKLVNVRVKDNAAKKSAMDVPAIQKVISEMETSMNGKGRILVRPSGTEPLLRVMAEAPTHEQVDHVVDTIVEVVEEEIGVK
# Biological target: the molecule itself
# Assay: cryo-EM structure
protein,measurement,value
B1,stoichiometry N,2
